This data set has as its system Saccharomyces cerevisiae. Nature of the data set: protein stability index of tFT-peptide fusion (C-terminal peptide) (PSI (0-1 scale)); higher = more stable (slower turnover). The settings on record: temperature: 30 C. The protocol: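 MPS profiling in S. cerevisiae of the yeast C-terminome library: the last 12 aa of each annotated ORF are fused to the C-terminus of a sfGFP-mCherry timer, after a GGGS linker. Cells are FACS-sorted into 8 mCherry/sfGFP bins and deep-sequenced. PSI runs from 0 (unstable) to 1 (stable); wild type and das1Δ backgrounds, two technical replicates each.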

[1] abbreviates: genetic background: das1 deletion.

± gives the standard deviation of the averaged measurements.

Turning to LYPLFEAVPFRR [YBL096C C-terminal 12 aa], the protein stability index by setting is: under setting [1], 0.729 ± 0.014; (genetic background: wild type) 0.734 ± 0.01.

As for LYSFNQLEPLQT [GIC2 C-terminal 12 aa], the protein stability index was 0.703 ± 0.0092 under setting [1] and 0.669 ± 0.025 (genetic background: wild type).

Consider MDDEFVSGRFEI [SCH9 C-terminal 12 aa], for which the protein stability index is 0.717 ± 0.025 under setting [1] and 0.7026 ± 0.0042 (genetic background: wild type).

Turning to MDETIAPLVGCL [YEL008W C-terminal 12 aa], the protein stability index reads like this: under setting [1], 0.724 ± 0.012; (genetic background: wild type) 0.701 ± 0.038.

In the case of MDLEKDRYYDLS [DAS2 C-terminal 12 aa], the protein stability index runs as follows: under setting [1], 0.6908 ± 0.0068; (genetic background: wild type) 0.68 ± 0.027.

Regarding MHQYSAIIPSGT [YJL182C C-terminal 12 aa], the protein stability index under setting [1] was 0.642 ± 0.019 and the protein stability index (genetic background: wild type) came to 0.603 ± 0.0061.

MITCLTAALKLN [AVT6 C-terminal 12 aa]: the protein stability index reads like this: under setting [1], 0.6868 ± 0.0041; (genetic background: wild type) 0.174 ± 0.0018.

On to MLQYLVFVYIEK [YCR085W C-terminal 12 aa], for which the protein stability index runs as follows: under setting [1], 0.182 ± 0.0095; (genetic background: wild type) 0.21 ± 0.016.

Regarding MTDFSSSIIKGK [YCR090C C-terminal 12 aa], the protein stability index under setting [1] was 0.713 ± 0.031 and the protein stability index (genetic background: wild type) was 0.677 ± 0.048.

For MVKIRTKNDAKN [TAF2 C-terminal 12 aa], the protein stability index was 0.7067 ± 0.0054 under setting [1] and 0.6135 ± 0.00067 (genetic background: wild type).

As for MVTSIRSTPNYI [MED6 C-terminal 12 aa], the protein stability index is, setting by setting: under setting [1], 0.694 ± 0.021; (genetic background: wild type) 0.722 ± 0.051.

Take NAILNGGSVSGL [YAR066W C-terminal 12 aa]: the protein stability index by setting is: under setting [1], 0.677 ± 0.0079; (genetic background: wild type) 0.668 ± 0.02.

Turning to NASYTKKYVPHP [YPR059C C-terminal 12 aa], the protein stability index by setting is: under setting [1], 0.682 ± 0.0097; (genetic background: wild type) 0.703 ± 0.063.

For NATYNDSESSLN [SPO13 C-terminal 12 aa], the protein stability index is, setting by setting: under setting [1], 0.727 ± 0.016; (genetic background: wild type) 0.721 ± 0.0083.

In the case of NDINNSRPITRK [ARO80 C-terminal 12 aa], the protein stability index by setting is: under setting [1], 0.682 ± 0.045; (genetic background: wild type) 0.666 ± 0.03.

Regarding NEDWPNESKPLV [GOR1 C-terminal 12 aa], the protein stability index runs as follows: under setting [1], 0.711 ± 0.0072; (genetic background: wild type) 0.663 ± 0.011.

Regarding NEELEKLRPPIT [SIP3 C-terminal 12 aa], the protein stability index runs as follows: under setting [1], 0.7001 ± 0.0018; (genetic background: wild type) 0.716 ± 0.052.

Take NEIATKLEETKL [TYS1 C-terminal 12 aa]: the protein stability index was 0.694 ± 0.037 under setting [1] and 0.687 ± 0.0072 (genetic background: wild type).

As to NESLSTILLYII [YKR033C C-terminal 12 aa], the protein stability index under setting [1] is 0.644 ± 0.008 and the protein stability index (genetic background: wild type) came out at 0.561 ± 0.0068.

“NFFESYRTISCL [YPL038W-A C-terminal 12 aa]”: the protein stability index was 0.6408 ± 0.0042 under setting [1] and 0.3261 ± 0.0021 (genetic background: wild type).

Consider NFGVSSSFSFKP [PEX3 C-terminal 12 aa], for which the protein stability index is, setting by setting: under setting [1], 0.7032 ± 0.003; (genetic background: wild type) 0.7154 ± 0.0041.

As for NFVMTVFWKIPV [PER33 C-terminal 12 aa], the protein stability index reads like this: under setting [1], 0.5008 ± 0.0016; (genetic background: wild type) 0.558 ± 0.075.

Regarding NGANIFITSALT [YGL176C C-terminal 12 aa], the protein stability index by setting is: under setting [1], 0.691 ± 0.004; (genetic background: wild type) 0.684 ± 0.016.

For the sequence NGLKYHRGHSTH [SFP1 C-terminal 12 aa], the protein stability index reads like this: under setting [1], 0.703 ± 0.029; (genetic background: wild type) 0.6745 ± 0.0032.

On to NIFYQLLLTVNY [YBR013C C-terminal 12 aa], for which the protein stability index runs as follows: under setting [1], 0.229 ± 0.0065; (genetic background: wild type) 0.272 ± 0.02.

With NIGSPLGAPKKK [MBF1 C-terminal 12 aa], the protein stability index is, setting by setting: under setting [1], 0.696 ± 0.031; (genetic background: wild type) 0.7008 ± 0.0064.

NIHQTDYIYARL [BUD16 C-terminal 12 aa] displayed a protein stability index under setting [1] of 0.798 ± 0.031 and a protein stability index (genetic background: wild type) of 0.708 ± 0.12.

NILKVEKRAVLE [PMT1 C-terminal 12 aa]: the protein stability index by setting is: under setting [1], 0.684 ± 0.013; (genetic background: wild type) 0.659 ± 0.02.

Take NKEYWMKHKKPQ [PDE2 C-terminal 12 aa]: the protein stability index by setting is: under setting [1], 0.688 ± 0.0074; (genetic background: wild type) 0.762 ± 0.013.

For NKRDKRPANFTR [TSC11 C-terminal 12 aa], the protein stability index was found to be 0.7063 ± 0.0042 under setting [1] and 0.692 ± 0.018 (genetic background: wild type).

For the sequence NKVEENLEGLYL [RPT2 C-terminal 12 aa], the protein stability index under setting [1] turned out to be 0.6934 ± 0.0063 and the protein stability index (genetic background: wild type) is 0.671 ± 0.015.

As for NLSEAIHDNNGS [NNK1 C-terminal 12 aa], the protein stability index runs as follows: under setting [1], 0.717 ± 0.019; (genetic background: wild type) 0.7091 ± 0.00097.

With NNVPPIHPSLLH [NGR1 C-terminal 12 aa], the protein stability index turned out to be 0.7115 ± 0.0066 under setting [1] and 0.695 ± 0.017 (genetic background: wild type).

In the case of NPSILGDFTRED [RTR1 C-terminal 12 aa], the protein stability index is, setting by setting: under setting [1], 0.663 ± 0.015; (genetic background: wild type) 0.715 ± 0.02.

In the case of “NRHSYCFSNLAP [YOL085W-A C-terminal 12 aa]”, the protein stability index reads like this: under setting [1], 0.739 ± 0.0025; (genetic background: wild type) 0.691 ± 0.023.

As to NRIVSLKDATSK [GLN4 C-terminal 12 aa], the protein stability index reads like this: under setting [1], 0.689 ± 0.021; (genetic background: wild type) 0.685 ± 0.025.

In the case of NSFELNDFFITS [HAC1 C-terminal 12 aa], the protein stability index under setting [1] was 0.7145 ± 0.0011 and the protein stability index (genetic background: wild type) was found to be 0.74 ± 0.031.

On to NSLIFDAFNQIR [CDH1 C-terminal 12 aa], for which the protein stability index came out at 0.732 ± 0.029 under setting [1] and 0.736 ± 0.054 (genetic background: wild type).

As for NTSRIAKFFNRR [SEC15 C-terminal 12 aa], the protein stability index was found to be 0.702 ± 0.031 under setting [1] and 0.70527 ± 7.1e-05 (genetic background: wild type).

Consider NYAPHLSDATTS [MAC1 C-terminal 12 aa], for which the protein stability index is, setting by setting: under setting [1], 0.694 ± 0.013; (genetic background: wild type) 0.7064 ± 0.0029.

Take PAAKGKNLSFKR [RRP6 C-terminal 12 aa]: the protein stability index is 0.7188 ± 0.0035 under setting [1] and 0.709 ± 0.015 (genetic background: wild type).

The sequence PADIDKYIIQRK [FMP46 C-terminal 12 aa] gave a protein stability index under setting [1] of 0.7015 ± 0.0048 and a protein stability index (genetic background: wild type) of 0.672 ± 0.029.

Regarding PEDCKDDKYFVN [LCB2 C-terminal 12 aa], the protein stability index is, setting by setting: under setting [1], 0.6832 ± 0.0068; (genetic background: wild type) 0.685 ± 0.04.

“PFKERAVFLLVL [YDR524W-C C-terminal 12 aa]”: the protein stability index is, setting by setting: under setting [1], 0.523 ± 0.016; (genetic background: wild type) 0.361 ± 0.0078.

Consider PGVDVEVVVASN [RPS20 C-terminal 12 aa], for which the protein stability index runs as follows: under setting [1], 0.669 ± 0.0061; (genetic background: wild type) 0.702 ± 0.038.

With PIAAIKEILDQV [DSF1 C-terminal 12 aa], the protein stability index by setting is: under setting [1], 0.666 ± 0.0092; (genetic background: wild type) 0.639 ± 0.03.

With PIIKEILQEYES [DNA2 C-terminal 12 aa], the protein stability index by setting is: under setting [1], 0.6914 ± 0.0039; (genetic background: wild type) 0.729 ± 0.013.

In the case of PIKLKSDEEMII [YFL040W C-terminal 12 aa], the protein stability index under setting [1] was determined as 0.707 ± 0.025 and the protein stability index (genetic background: wild type) stood at 0.6724 ± 0.0042.

As to PILCTSEDFMGW [RGP1 C-terminal 12 aa], the protein stability index reads like this: under setting [1], 0.709 ± 0.0088; (genetic background: wild type) 0.732 ± 0.049.

On to PKWTDCEGDLTT [DET1 C-terminal 12 aa], for which the protein stability index under setting [1] was 0.712 ± 0.011 and the protein stability index (genetic background: wild type) amounted to 0.7387 ± 0.0071.

In turn, PLKDLDPNAFRG [YOX1 C-terminal 12 aa] came in with a protein stability index under setting [1] of 0.6861 ± 0.006 and a protein stability index (genetic background: wild type) of 0.692 ± 0.021.

Regarding “PLNDQVCPNSPL [YLR154W-F C-terminal 12 aa]”, the protein stability index under setting [1] is 0.7273 ± 0.0053 and the protein stability index (genetic background: wild type) was found to be 0.694 ± 0.033.

For the sequence PLYSMVAGENSL [SPO23 C-terminal 12 aa], the protein stability index is, setting by setting: under setting [1], 0.678 ± 0.021; (genetic background: wild type) 0.688 ± 0.023.

For PMIENLRFPNAR [YEH2 C-terminal 12 aa], the protein stability index runs as follows: under setting [1], 0.688 ± 0.023; (genetic background: wild type) 0.7039 ± 0.0046.

Regarding PMIKRQCEIIQF [TIP41 C-terminal 12 aa], the protein stability index by setting is: under setting [1], 0.645 ± 0.029; (genetic background: wild type) 0.676 ± 0.0097.

In turn, PPAGIPPPPPLP [PAN1 C-terminal 12 aa] yielded a protein stability index under setting [1] of 0.719 ± 0.0093 and a protein stability index (genetic background: wild type) of 0.711 ± 0.025.

In the case of PPSDPSSIKIRN [KIN28 C-terminal 12 aa], the protein stability index by setting is: under setting [1], 0.71109 ± 0.00022; (genetic background: wild type) 0.729 ± 0.0076.

For PQENHDNKEEQS [HEK2 C-terminal 12 aa], the protein stability index reads like this: under setting [1], 0.676 ± 0.019; (genetic background: wild type) 0.688 ± 0.033.

As to PQGAGRGRGMPM [CCT7 C-terminal 12 aa], the protein stability index worked out at 0.69 ± 0.0089 under setting [1] and 0.678 ± 0.034 (genetic background: wild type).

In the case of PQMDDHTVISEI [MLO127 C-terminal 12 aa], the protein stability index reads like this: under setting [1], 0.745 ± 0.029; (genetic background: wild type) 0.6854 ± 0.006.

With PRDEQDSRKRNR [IBD2 C-terminal 12 aa], the protein stability index reads like this: under setting [1], 0.699 ± 0.0085; (genetic background: wild type) 0.7315 ± 0.0047.

Consider PREILLRLMNDK [PRP6 C-terminal 12 aa], for which the protein stability index was found to be 0.726 ± 0.024 under setting [1] and 0.704 ± 0.096 (genetic background: wild type).

Consider PRRSDLRPEFAE [VMA9 C-terminal 12 aa], for which the protein stability index amounted to 0.672 ± 0.022 under setting [1] and 0.665 ± 0.018 (genetic background: wild type).

PSAYVLFYERIF [UBP5 C-terminal 12 aa] came in with a protein stability index under setting [1] of 0.71 ± 0.015 and a protein stability index (genetic background: wild type) of 0.678 ± 0.018.

PSFSNSQWRIIF [YOR169C C-terminal 12 aa] had a protein stability index under setting [1] of 0.714 ± 0.021 and a protein stability index (genetic background: wild type) of 0.694 ± 0.016.

Consider “PSYAVCDNILVT [YOL013W-B C-terminal 12 aa]”, for which the protein stability index amounted to 0.67 ± 0.04 under setting [1] and 0.653 ± 0.017 (genetic background: wild type).

As to PTFLIPLRLCFV [EMA19 C-terminal 12 aa], the protein stability index runs as follows: under setting [1], 0.329 ± 0.02; (genetic background: wild type) 0.336 ± 0.0072.

These data come from the supplement of paper PMC10724198.
